We go through 9 molecules from patent US20240252641A1 (published 2024).

The labels stand for the following.
T1: human CD70, recombinant, N-terminally biotinylated (residues 39-193) (human, UniProt P32970 39-193, N-terminal biotin)
T1 chain: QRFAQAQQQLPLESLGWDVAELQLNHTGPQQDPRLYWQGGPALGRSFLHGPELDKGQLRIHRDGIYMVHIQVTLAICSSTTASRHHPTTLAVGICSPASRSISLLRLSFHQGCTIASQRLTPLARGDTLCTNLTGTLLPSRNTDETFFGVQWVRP

B1: R3P3H12 VHH (VHH)
VHH: QVQLQESGGGLVQTGGSLRLSCTASGSIFDIVRGSWYRQAPGNQRELVAIITSGGATNYADSVAGRFTISRDSAWKALYLQMNSLKPEDTAVYFCNMESVRYRNYWGQGTQVTVSS
B2: R3P5A1 VHH (VHH)
VHH: QVQLQESGGGLVQPGGSLRLSCTASGSIFSATRMEWYRQAPGKQRELVAIVTSGGRTNYADSVNGRFTISRDNAKNTLYLQMNNLKPEDTAVYYCKFERYDYVNYWGRGTQVTVSS
B3: human CD27 fused to human Fc domain (Fc fusion)
chain: TPAPKSCPERHYWAQGKLCCQMCEPGTFLVKDCDQHRKAAQCDPCIPGVSFSPDHHTRPHCESCRHCNSGLLVRNCTITANAECACRNGWQCRDKECTECDPLPNPSLTARSSQALSPHPQPTHLPYVSEMLEARTAGHMQTLADFRQLPARTLSTHWPPQRSLCSSDFIRI
B4: R3aP3E8 VHH (VHH)
VHH: QVQLQESGGGLVQPGGSLRLSCVASGSIFSIARMNWYRQAPGKQRELVAILNRAGRTDYADSVKGRFTISSDNAKTTVYLQMNSLKPEDTALYYCNLQTISYHDFWGQGTQVTVSS
B5: R3aP9D10 VHH (VHH)
VHH: QVQLQESGGGLVQAGGSLRLSCAAPGFTFDAYAIGWFRQAPGKEREGVICLSPSDGSTYYADSVKGRFTISSDNAKNTVYLQMNSLKPEDTAVYYCATPSWCSLKADFGSWGQGTQVTVSS
B6: CD70 (ligand)
chain: T1 chain
modifications: N-terminal biotin
B7: 50-TC7-III-A11 (scFv)
scFv: QVQLVQSGAEVKRPGASVKVSCKASGYTFTSYYMHWVRQAPGQGLEWMGIINPSGGSTSYAQKFQGRVTMTRDTSTSTVYMELSSLRSEDTAVYYCAIEPGYCSGGSCYPDAFDIWGQGTTVTVSSGGSGGSGGSGGSQSVLTQPPSASGTPGQRVTISCSGSSSNIGSDYVYWYQRVPGTAPKLLIYRDNQRPSGVPDRFSGSKSGTSASLAISGLRSDDEADYYCAAWDDSLSGWVFGGGTKVTVL
B8: 1-TC4-I-C10 (scFv)
scFv: EVQLVQSGAEVKKPGESLKISCKGSGYSFTSYWIGWVRQMPGKGLEWMGIIYPGDSDTRYSPSFQGQVTISADKSISTAYLQWSSLKASDTAMYYCAISRTESYVMDVWGQGTTVTVSSGGSGGSGGSGGSQSALTQPRSVSGSPGQSVTISCTGTSSDVGGYNYVSWYQQHPGKAPKLMIYDVTNRPSGVPDRFSASKSDNTATLTVSGVQAEDEADYYCSSYAGSHELFGGGTKLTVL
B9: 39-TC6-IV-B08 (scFv)
scFv: QVQLVESGGGVVQPGGSLRLSCAASGFTFSSYAMHWVRQAPGKGLEWVAVISYDGSNKYYADSVKGRFTISRDNSKNTLYLQMNSLRAEDTAVYYCARDGHPYYYGMDVWGQGTTVTVSSGGSGGSGGSGGSQSALTQPASVSGSPGQSITISCTGTSSDVGDYNYVSWYQHHPGKAPKLMIYDVSNRPSGVSNRFSGSKSGNTASLTISGLQAEDEADYYCGSYTGSDTWVFGGGTKVTVL

The target in one test is T1, human CD70, recombinant, N-terminally …. The test can be described thus: Octet BLI. (In general: In BLI a coated tip is dipped into the sample, and binding shifts an interference pattern.)
For B1, the dissociation constant Kd (usually the concentration at which binding is half-saturated) is 0.16 nM.

B2: the Kd came out at 0.025 nM.

For B3, the dissociation constant Kd amounted to 1.7 nM.

On to B4, for which the Kd turned out to be 0.027 nM.

As for B5, the Kd worked out at 0.036 nM.

In another test the target is 41D12 (LwH). Nature of the test: Octet BLI.
B6: binding was characterised by a dissociation constant (Kd) of 0.001 nM.

In the next test the target is T1, human CD70, recombinant, N-terminally …. Nature of the test: Octet BLI steady-state.
For B7, the Kd came out at 55.7 nM.

Turning to B8, the dissociation constant (Kd) was 56.7 nM.

As for B9, the Kd came to 41.7 nM.
